IntAct's records for PubMed 31515488

B1: Isoform 1 of Zinc finger protein 18 (Homo sapiens), P17022-1 (parent)
chain: MPVDLGQALGLLPSLAKAEDSQFSESDAALQEELSSPETARQLFRQFRYQVMSGPHETLKQLRKLCFQWLQPEVHTKEQILEILMLEQFLTILPGEIQMWVRKQCPGSGEEAVTLVESLKGDPQRLWQWISIQVLGQDILSEKMESPSCQVGEVEPHLEVVPQELGLENSSSGPGELLSHIVKEESDTEAELALAASQPARLEERLIRDQDLGASLLPAAPQEQWRQLDSTQKEQYWDLMLETYGKMVSGAGISHPKSDLTNSIEFGEELAGIYLHVNEKIPRPTCIGDRQENDKENLNLENHRDQELLHASCQASGEVPSQASLRGFFTEDEPGCFGEGENLPEALQNIQDEGTGEQLSPQERISEKQLGQHLPNPHSGEMSTMWLEEKRETSQKGQPRAPMAQKLPTCRECGKTFYRNSQLIFHQRTHTGETYFQCTICKKAFLRSSDFVKHQRTHTGEKPCKCDYCGKGFSDFSGLRHHEKIHTGEKPYKCPICEKSFIQRSNFNRHQRVHTGEKPYKCSHCGKSFSWSSSLDKHQRSHLGKKPFQ
B2: Cyclin-H (Homo sapiens), P51946 (parent)
chain: MYHNSSQKRHWTFSSEEQLARLRADANRKFRCKAVANGKVLPNDPVFLEPHEEMTLCKYYEKRLLEFCSVFKPAMPRSVVGTACMYFKRFYLNNSVMEYHPRIIMLTCAFLACKVDEFNVSSPQFVGNLRESPLGQEKALEQILEYELLLIQQLNFHLIVHNPYRPFEGFLIDLKTRYPILENPEILRKTADDFLNRIALTDAYLLYTPSQIALTAILSSASRAGITMESYLSESLMLKENRTCLSQLLDIMKSMRNLVKKYEPPRSEEVAVLKQKLERCHSAELALNVITKKRKGYEDDDYVSKKSKHEEEEWTDDDLVESL
B3: Tuftelin-interacting protein 11 (Homo sapiens), Q9UBB9 (parent)
chain: MSLSHLYRDGEGRIDDDDDERENFEITDWDLQNEFNPNRQRHWQTKEEATYGVWAERDSDDERPSFGGKRARDYSAPVNFISAGLKKGAAEEAELEDSDDEEKPVKQDDFPKDFGPRKLKTGGNFKPSQKGFAGGTKSFMDFGSWERHTKGIGQKLLQKMGYVPGRGLGKNAQGIINPIEAKQRKGKGAVGAYGSERTTQSMQDFPVVDSEEEAEEEFQKELSQWRKDPSGSKKKPKYSYKTVEELKAKGRISKKLTAPQKELSQVKVIDMTGREQKVYYSYSQISHKHNVPDDGLPLQSQQLPQSGKEAKAPGFALPELEHNLQLLIDLTEQEIIQNDRQLQYERDMVVNLFHELEKMTEVLDHEERVISNLSKVLEMVEECERRMQPDCSNPLTLDECARIFETLQDKYYEEYRMSDRVDLAVAIVYPLMKEYFKEWDPLKDCTYGTEIISKWKSLLENDQLLSHGGQDLSADAFHRLIWEVWMPFVRNIVTQWQPRNCDPMVDFLDSWVHIIPVWILDNILDQLIFPKLQKEVENWNPLTDTVPIHSWIHPWLPLMQARLEPLYSPIRSKLSSALQKWHPSDSSAKLILQPWKDVFTPGSWEAFMVKNIVPKLGMCLGELVINPHQQHMDAFYWVIDWEGMISVSSLVGLLEKHFFPKWLQVLCSWLSNSPNYEEITKWYLGWKSMFSDQVLAHPSVKDKFNEALDIMNRAVSSNVGAYMQPGARENIAYLTHTERRKDFQYEAMQERREAENMAQRGIGVAASSVPMNFKDLIETKAEEHNIVFMPVIGKRHEGKQLYTFGRIVIYIDRGVVFVQGEKTWVPTSLQSLIDMAK

Variants of: B1
Conditions: with ttc32_human TTC32, Q5I0X7

effect of a mutation on the interaction	Variant
with no effect	MPVDLGQALGLLPSLAKAEDSQFSESDAALQEELSSPETARQLFRQFRYQVMSGPHETLKQLRKLCFQWLQPEVHTKEQILEILMLEQFLTILPGEIQMWVRKQCPGSGEEAVTLVESLKGDPQRLWQWISIQVLGQDILSEKMESPSCQVGEVEPHLEVVPQELGLENSSSGPGELLSHIVKEESDTEAELALAASQPARLEERLIRDQDLGASLLPAAPQEQWRQLDSTQKEQYWDLMLETYGKMVSGAGISHPKSDLTNSIEFGEELAGIYLHVNEKIPRPTCIGDRQENDKENLNLENHRDQELLHASCQASGEVPSQASLRGFFTEDEPGCFGEGENLPEALQNIQDEGTGEQLSPQERISEKQLGQHLPNPHSGEMSTMWFEEKRETSQKGQPRAPMAQKLPTCRECGKTFYRNSQLIFHQRTHTGETYFQCTICKKAFLRSSDFVKHQRTHTGEKPCKCDYCGKGFSDFSGLRHHEKIHTGEKPYKCPICEKSFIQRSNFNRHQRVHTGEKPYKCSHCGKSFSWSSSLDKHQRSHLGKKPFQ [L387F]

Variants of: B1
Conditions: with ccnc_human CCNC

effect of a mutation on the interaction	Variant
with no effect	MPVDLGQALGLLPSLAKAEDSQFSESDAALQEELSSPETARQLFRQFRYQVMSGPHETLKQLRKLCFQWLQPEVHTKEQILEILMLEQFLTILPGEIQMWVRKQCPGSGEEAVTLVESLKGDPQRLWQWISIQVLGQDILSEKMESPSCQVGEVEPHLEVVPQELGLENSSSGPGELLSHIVKEESDTEAELALAASQPARLEERLIRDQDLGASLLPAAPQEQWRQLDSTQKEQYWDLMLETYGKMVSGAGISHPKSDLTNSIEFGEELAGIYLHVNEKIPRPTCIGDRQENDKENLNLENHRDQELLHASCQASGEVPSQASLRGFFTEDEPGCFGEGENLPEALQNIQDEGTGEQLSPQERISEKQLGQHLPNPHSGEMSTMWFEEKRETSQKGQPRAPMAQKLPTCRECGKTFYRNSQLIFHQRTHTGETYFQCTICKKAFLRSSDFVKHQRTHTGEKPCKCDYCGKGFSDFSGLRHHEKIHTGEKPYKCPICEKSFIQRSNFNRHQRVHTGEKPYKCSHCGKSFSWSSSLDKHQRSHLGKKPFQ [L387F]

Variants of: B2
Conditions: with klc3_human KLC3, Q6P597

effect of a mutation on the interaction	Variant
disrupting interaction strength	MYHNSSQKRHWTFSSEEQLARLRADANRKFRCKAVANGKVLPNDPVFLEPHEEMTLCKYYEKRLLEFCSVFKPAMPRSVVGTACMYFKRFYLNNSVMEYHPRIIMLTCAFLACKVDEFNVSSPQFVGNLRESPLGQEKALEQILEYELLLIQQLTFHLIVHNPYRPFEGFLIDLKTRYPILENPEILRKTADDFLNRIALTDAYLLYTPSQIALTAILSSASRAGITMESYLSESLMLKENRTCLSQLLDIMKSMRNLVKKYEPPRSEEVAVLKQKLERCHSAELALNVITKKRKGYEDDDYVSKKSKHEEEEWTDDDLVESL [N155T]

Variants of: B2
Conditions: with lipa1_human PPFIA1, Q13136

effect of a mutation on the interaction	Variant
disrupting interaction strength	MYHNSSQKRHWTFSSEEQLARLRADANRKFRCKAVANGKVLPNDPVFLEPHEEMTLCKYYEKRLLEFCSVFKPAMPRSVVGTACMYFKRFYLNNSVMEYHPRIIMLTCAFLACKVDEFNVSSPQFVGNLRESPLGQEKALEQILEYELLLIQQLTFHLIVHNPYRPFEGFLIDLKTRYPILENPEILRKTADDFLNRIALTDAYLLYTPSQIALTAILSSASRAGITMESYLSESLMLKENRTCLSQLLDIMKSMRNLVKKYEPPRSEEVAVLKQKLERCHSAELALNVITKKRKGYEDDDYVSKKSKHEEEEWTDDDLVESL [N155T]

Variants of: B2
Conditions: with dus12_human DUSP12, Q9UNI6
Chain of dus12_human DUSP12, Q9UNI6 (Q9UNI6 whole entry): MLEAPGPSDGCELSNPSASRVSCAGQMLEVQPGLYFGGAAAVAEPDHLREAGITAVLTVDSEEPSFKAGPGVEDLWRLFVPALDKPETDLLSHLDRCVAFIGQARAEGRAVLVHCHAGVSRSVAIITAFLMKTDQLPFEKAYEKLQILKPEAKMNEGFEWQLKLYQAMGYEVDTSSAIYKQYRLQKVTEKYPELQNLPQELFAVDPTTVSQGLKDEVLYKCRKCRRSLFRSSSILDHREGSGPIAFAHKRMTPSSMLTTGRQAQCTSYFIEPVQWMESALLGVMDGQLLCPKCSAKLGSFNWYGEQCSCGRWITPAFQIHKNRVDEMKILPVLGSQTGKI

effect of a mutation on the interaction	Variant
disrupting interaction strength	MYHNSSQKRHWTFSSEEQLARLRADANRKFRCKAVANGKVLPNDPVFLEPHEEMTLCKYYEKRLLEFCSVFKPAMPRSVVGTACMYFKRFYLNNSVMEYHPRIIMLTCAFLACKVDEFNVSSPQFVGNLRESPLGQEKALEQILEYELLLIQQLTFHLIVHNPYRPFEGFLIDLKTRYPILENPEILRKTADDFLNRIALTDAYLLYTPSQIALTAILSSASRAGITMESYLSESLMLKENRTCLSQLLDIMKSMRNLVKKYEPPRSEEVAVLKQKLERCHSAELALNVITKKRKGYEDDDYVSKKSKHEEEEWTDDDLVESL [N155T]

Variants of: B3
Conditions: with zmat2_human ZMAT2, Q96NC0

effect of a mutation on the interaction	Variant
with no effect	S688L

Variants of: B3
Conditions: with cox5b_human COX5B

effect of a mutation on the interaction	Variant
with no effect	S688L

Variants of: B3
Conditions: with txlna_human TXLNA

effect of a mutation on the interaction	Variant
with no effect	S688L

Variants of: B3
Conditions: with hook1_human HOOK1, Q9UJC3
Chain of hook1_human HOOK1, Q9UJC3 (Q9UJC3 whole entry): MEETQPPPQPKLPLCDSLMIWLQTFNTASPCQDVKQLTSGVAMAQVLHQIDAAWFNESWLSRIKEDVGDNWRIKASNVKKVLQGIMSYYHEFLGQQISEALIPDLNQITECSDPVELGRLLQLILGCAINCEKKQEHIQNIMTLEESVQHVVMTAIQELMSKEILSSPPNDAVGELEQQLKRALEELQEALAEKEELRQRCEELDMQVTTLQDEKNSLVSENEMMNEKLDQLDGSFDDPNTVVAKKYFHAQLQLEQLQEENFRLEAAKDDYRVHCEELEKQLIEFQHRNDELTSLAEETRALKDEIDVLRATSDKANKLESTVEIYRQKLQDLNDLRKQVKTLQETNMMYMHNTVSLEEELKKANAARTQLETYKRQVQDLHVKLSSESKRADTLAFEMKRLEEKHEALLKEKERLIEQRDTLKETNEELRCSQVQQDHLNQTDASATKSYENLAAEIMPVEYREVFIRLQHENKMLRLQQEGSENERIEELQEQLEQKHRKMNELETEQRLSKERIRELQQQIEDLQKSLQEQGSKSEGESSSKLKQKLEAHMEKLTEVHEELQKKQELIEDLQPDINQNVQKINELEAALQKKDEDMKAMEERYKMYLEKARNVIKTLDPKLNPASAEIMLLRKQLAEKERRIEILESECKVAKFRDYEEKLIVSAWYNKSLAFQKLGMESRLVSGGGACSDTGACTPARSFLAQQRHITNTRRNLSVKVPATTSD

effect of a mutation on the interaction	Variant
with no effect	S688L

Variants of: B3
Conditions: with tnnt1_human TNNT1, P13805
Chain of tnnt1_human TNNT1, P13805 (P13805 whole entry): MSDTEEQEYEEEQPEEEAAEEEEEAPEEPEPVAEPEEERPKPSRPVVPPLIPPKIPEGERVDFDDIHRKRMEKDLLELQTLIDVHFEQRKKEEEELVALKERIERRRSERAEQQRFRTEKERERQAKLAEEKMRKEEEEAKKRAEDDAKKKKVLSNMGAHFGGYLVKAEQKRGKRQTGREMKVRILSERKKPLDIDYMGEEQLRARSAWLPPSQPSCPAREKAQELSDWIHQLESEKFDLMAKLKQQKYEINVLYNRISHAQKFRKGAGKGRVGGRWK

effect of a mutation on the interaction	Variant
with no effect	S688L

Variants of: B3
Conditions: with coq8a_human COQ8A

effect of a mutation on the interaction	Variant
with no effect	S688L

Variants of: B3
Conditions: with smce1_human SMARCE1, Q969G3

effect of a mutation on the interaction	Variant
with no effect	S688L

Variants of: B3
Conditions: with bmf_human BMF

effect of a mutation on the interaction	Variant
with no effect	S688L

Variants of: B3
Conditions: with fa13c_human FAM13C

effect of a mutation on the interaction	Variant
with no effect	S688L

Variants of: B3
Conditions: with prp31_human PRPF31, Q8WWY3

effect of a mutation on the interaction	Variant
with no effect	S688L

Variants of: B3
Conditions: with snw1_human SNW1, Q13573

effect of a mutation on the interaction	Variant
with no effect	S688L

Variants of: B3
Conditions: with sfr1_human SFR1, Q86XK3

effect of a mutation on the interaction	Variant
with no effect	S688L

Variants of: B3
Conditions: with zfy26_human ZFYVE26, Q68DK2
Chain of zfy26_human ZFYVE26, Q68DK2 (Q68DK2 whole entry): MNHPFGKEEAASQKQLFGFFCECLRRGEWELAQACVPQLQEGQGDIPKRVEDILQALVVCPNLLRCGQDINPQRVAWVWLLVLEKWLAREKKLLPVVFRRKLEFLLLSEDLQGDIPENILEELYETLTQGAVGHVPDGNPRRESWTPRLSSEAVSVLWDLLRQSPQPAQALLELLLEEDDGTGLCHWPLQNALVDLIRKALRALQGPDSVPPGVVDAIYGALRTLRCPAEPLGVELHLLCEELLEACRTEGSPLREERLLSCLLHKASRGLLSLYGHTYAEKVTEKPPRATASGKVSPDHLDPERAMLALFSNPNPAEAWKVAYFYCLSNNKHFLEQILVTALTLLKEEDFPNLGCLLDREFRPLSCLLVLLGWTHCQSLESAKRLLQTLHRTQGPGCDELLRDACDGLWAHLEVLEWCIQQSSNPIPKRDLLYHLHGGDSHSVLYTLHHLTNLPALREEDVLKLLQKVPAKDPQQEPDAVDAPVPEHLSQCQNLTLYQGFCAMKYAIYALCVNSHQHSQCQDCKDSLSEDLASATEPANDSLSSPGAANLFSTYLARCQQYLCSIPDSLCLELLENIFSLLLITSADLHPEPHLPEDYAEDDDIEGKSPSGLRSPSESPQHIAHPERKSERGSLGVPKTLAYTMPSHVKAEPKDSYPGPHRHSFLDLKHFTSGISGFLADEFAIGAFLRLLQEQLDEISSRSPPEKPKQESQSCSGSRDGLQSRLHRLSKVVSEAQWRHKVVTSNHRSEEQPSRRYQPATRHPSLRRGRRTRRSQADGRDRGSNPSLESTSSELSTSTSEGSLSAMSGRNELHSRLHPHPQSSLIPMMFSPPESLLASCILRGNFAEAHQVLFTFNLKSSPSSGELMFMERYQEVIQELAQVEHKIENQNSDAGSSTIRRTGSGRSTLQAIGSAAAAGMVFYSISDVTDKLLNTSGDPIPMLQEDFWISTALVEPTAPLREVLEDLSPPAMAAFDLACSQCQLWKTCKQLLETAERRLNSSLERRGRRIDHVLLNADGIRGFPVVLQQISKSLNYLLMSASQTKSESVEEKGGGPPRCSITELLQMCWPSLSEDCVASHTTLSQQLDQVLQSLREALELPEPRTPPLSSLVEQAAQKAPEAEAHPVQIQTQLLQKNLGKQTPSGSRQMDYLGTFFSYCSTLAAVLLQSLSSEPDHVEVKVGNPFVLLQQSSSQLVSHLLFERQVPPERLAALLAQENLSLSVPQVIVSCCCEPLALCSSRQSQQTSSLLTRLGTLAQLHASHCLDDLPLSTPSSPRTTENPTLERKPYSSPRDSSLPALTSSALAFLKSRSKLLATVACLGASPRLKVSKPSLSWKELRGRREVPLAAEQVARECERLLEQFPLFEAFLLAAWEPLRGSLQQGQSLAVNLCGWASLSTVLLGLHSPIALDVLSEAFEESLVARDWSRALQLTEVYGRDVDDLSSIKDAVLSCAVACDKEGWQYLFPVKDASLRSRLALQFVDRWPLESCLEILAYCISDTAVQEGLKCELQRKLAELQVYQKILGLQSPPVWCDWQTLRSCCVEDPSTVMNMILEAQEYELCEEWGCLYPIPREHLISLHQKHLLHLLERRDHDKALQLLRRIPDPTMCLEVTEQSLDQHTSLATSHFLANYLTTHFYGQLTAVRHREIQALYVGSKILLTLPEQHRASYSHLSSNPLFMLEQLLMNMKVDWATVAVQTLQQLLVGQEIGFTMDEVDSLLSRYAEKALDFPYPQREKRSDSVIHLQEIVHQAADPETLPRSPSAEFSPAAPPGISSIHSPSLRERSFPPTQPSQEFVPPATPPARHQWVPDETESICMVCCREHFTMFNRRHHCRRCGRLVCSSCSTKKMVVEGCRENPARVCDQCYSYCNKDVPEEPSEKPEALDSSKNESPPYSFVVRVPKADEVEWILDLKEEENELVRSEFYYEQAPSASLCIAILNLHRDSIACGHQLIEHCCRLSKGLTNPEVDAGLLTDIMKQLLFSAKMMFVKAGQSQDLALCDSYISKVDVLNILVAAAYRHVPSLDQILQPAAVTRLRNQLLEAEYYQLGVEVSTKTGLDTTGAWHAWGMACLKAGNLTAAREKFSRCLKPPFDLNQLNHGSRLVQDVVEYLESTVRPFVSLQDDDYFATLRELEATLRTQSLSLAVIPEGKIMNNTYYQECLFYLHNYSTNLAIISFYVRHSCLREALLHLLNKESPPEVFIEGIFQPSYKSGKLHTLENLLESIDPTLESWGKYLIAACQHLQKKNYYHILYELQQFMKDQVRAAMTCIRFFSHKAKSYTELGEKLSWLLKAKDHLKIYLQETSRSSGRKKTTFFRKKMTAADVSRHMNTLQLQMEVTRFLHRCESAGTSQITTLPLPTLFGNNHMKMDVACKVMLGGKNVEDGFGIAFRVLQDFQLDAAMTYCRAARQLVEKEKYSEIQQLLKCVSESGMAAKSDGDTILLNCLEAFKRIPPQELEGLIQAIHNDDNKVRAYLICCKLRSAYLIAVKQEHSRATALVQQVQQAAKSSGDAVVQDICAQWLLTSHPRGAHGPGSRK

effect of a mutation on the interaction	Variant
with no effect	S688L

Variants of: B3
Conditions: with abi2_human ABI2, Q9NYB9
Chain of abi2_human ABI2, Q9NYB9 (Q9NYB9 whole entry): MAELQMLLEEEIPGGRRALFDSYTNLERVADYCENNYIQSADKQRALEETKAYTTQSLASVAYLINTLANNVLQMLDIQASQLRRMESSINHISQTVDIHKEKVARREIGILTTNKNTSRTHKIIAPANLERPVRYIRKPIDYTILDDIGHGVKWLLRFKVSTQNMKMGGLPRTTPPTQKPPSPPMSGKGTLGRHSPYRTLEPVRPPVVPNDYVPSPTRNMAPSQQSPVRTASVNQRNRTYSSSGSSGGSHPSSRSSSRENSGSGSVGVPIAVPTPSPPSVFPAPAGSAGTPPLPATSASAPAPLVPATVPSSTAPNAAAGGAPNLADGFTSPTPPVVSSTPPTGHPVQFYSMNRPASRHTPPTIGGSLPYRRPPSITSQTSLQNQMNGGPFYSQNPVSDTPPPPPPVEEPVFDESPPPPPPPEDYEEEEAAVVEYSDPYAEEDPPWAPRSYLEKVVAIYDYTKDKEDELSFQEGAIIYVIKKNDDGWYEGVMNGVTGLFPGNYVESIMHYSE

effect of a mutation on the interaction	Variant
with no effect	S688L

Variants of: B3
Conditions: with cc121_human CCDC121, Q6ZUS5
Chain of cc121_human CCDC121, Q6ZUS5 (Q6ZUS5 whole entry): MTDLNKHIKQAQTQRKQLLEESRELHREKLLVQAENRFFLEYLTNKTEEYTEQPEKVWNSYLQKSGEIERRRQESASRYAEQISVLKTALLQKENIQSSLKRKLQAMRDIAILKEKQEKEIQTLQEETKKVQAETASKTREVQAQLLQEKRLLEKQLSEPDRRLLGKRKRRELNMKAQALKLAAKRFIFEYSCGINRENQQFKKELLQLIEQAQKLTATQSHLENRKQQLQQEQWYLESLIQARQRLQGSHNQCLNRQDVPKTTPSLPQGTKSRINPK

effect of a mutation on the interaction	Variant
with no effect	S688L

Variants of: B3
Conditions: with KRT6A

effect of a mutation on the interaction	Variant
with no effect	S688L

Variants of: B3
Conditions: with lca5l_human LCA5L

effect of a mutation on the interaction	Variant
with no effect	M140V

Variants of: B3
Conditions: with ccnd3_human CCND3, P30281
Chain of ccnd3_human CCND3, P30281 (P30281 whole entry): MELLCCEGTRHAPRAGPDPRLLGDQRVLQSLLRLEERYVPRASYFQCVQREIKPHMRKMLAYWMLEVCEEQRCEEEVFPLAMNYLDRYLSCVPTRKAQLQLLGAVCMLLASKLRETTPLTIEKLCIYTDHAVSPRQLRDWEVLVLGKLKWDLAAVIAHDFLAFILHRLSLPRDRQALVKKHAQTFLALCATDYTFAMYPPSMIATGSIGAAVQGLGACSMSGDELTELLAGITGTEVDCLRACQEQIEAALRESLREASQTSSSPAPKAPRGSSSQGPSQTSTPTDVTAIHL

effect of a mutation on the interaction	Variant
with no effect	M140V

Variants of: B3
Conditions: with cenpu_human CENPU

effect of a mutation on the interaction	Variant
with no effect	M140V
